Measurements: the supplement of paper PMC9233669
Variants at the floor of the assay were thinned out.

How the values were obtained:
biotinyl-Phe-oxazolone = assay: self-aminoacylation, catalytic enhancement (BFO) (fold over background); higher = more active; k-Seq, kA / k0A0; sequences stand for … in GGGAAUGGAUCCACAUCUACGAAUUC…UUCACUGCAGACUUGACGAAGCUG
In short: (§1)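 Mutagenized RNA pools with a 21-nt variable region (0.43 μM) were reacted with each biotinyl-aminoacyl-oxazolone at 2–1250 μM for 90 minutes at room temperature, in 50 μL HEPES/NaCl/KCl/MgCl2/CaCl2 buffer containing 5% acetonitrile at pH 6.9–7.0. RNA captured on streptavidin was quantified by triplicate qPCR and by Illumina sequencing. The fraction reacted for each sequence was fit to a pseudo-first-order model with bootstrapping, and catalytic enhancement is the median kA divided by the uncatalyzed rate, taken as the low-activity peak of a bimodal Gaussian fit.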

biotinyl-Ile-oxazolone = assay: self-aminoacylation, catalytic enhancement (BIO) (fold over background); higher = more active; k-Seq, kA / k0A0; sequences stand for … in GGGAAUGGAUCCACAUCUACGAAUUC…UUCACUGCAGACUUGACGAAGCUG
In short: as §1

biotinyl-Met-oxazolone = assay: self-aminoacylation, catalytic enhancement (BMO) (fold over background); higher = more active; k-Seq, kA / k0A0; sequences stand for … in GGGAAUGGAUCCACAUCUACGAAUUC…UUCACUGCAGACUUGACGAAGCUG
In short: as §1

biotinyl-Val-oxazolone = assay: self-aminoacylation, catalytic enhancement (BVO) (fold over background); higher = more active; k-Seq, kA / k0A0; sequences stand for … in GGGAAUGGAUCCACAUCUACGAAUUC…UUCACUGCAGACUUGACGAAGCUG
In short: as §1

biotinyl-Leu-oxazolone = assay: self-aminoacylation, catalytic enhancement (BLO) (fold over background); higher = more active; k-Seq, kA / k0A0; sequences stand for … in GGGAAUGGAUCCACAUCUACGAAUUC…UUCACUGCAGACUUGACGAAGCUG
In short: as §1

biotinyl-Trp-oxazolone = assay: self-aminoacylation, catalytic enhancement (BWO) (fold over background); higher = more active; k-Seq, kA / k0A0; sequences stand for … in GGGAAUGGAUCCACAUCUACGAAUUC…UUCACUGCAGACUUGACGAAGCUG
In short: as §1

Row | Sequence | self-aminoacylation (biotinyl-Phe-oxazolone) | self-aminoacylation (biotinyl-Ile-oxazolone) | self-aminoacylation (biotinyl-Met-oxazolone) | self-aminoacylation (biotinyl-Val-oxazolone) | self-aminoacylation (biotinyl-Leu-oxazolone) | self-aminoacylation (biotinyl-Trp-oxazolone)
1 | AAGUAUGCUAAUAGUCGCAAA [Fam3.1 aminoacylation ribozyme variant] | 3.99 | 1.82 | 1.67 | 1.96 | 1.26 | 1.7
2 | CCACACAUCCAGCAAUCGGUC [Fam1B.1 aminoacylation ribozyme variant] | 0.873 | 1.2 | 1.05 | 1.08 | 0.983 | 0.847
3 | CUACUUUAAGCAAUCGGUCUG [Fam1A.1 aminoacylation ribozyme variant] | 0.5 | 0.721 | 0.749 | 0.685 | 0.69 | 0.51
4 | GUACUUCAAACAUUCGGUCUG [Fam1A.1 aminoacylation ribozyme variant] | 6.13 | 1.63 | 1.6 | 1.96 | 1.66 | 2.34
5 | UAGUUUACUAAUAGUCGCAAG [Fam3.1 aminoacylation ribozyme variant] | 2.86 | 1.45 | 1.41 | 1.48 | 1.36 | 1.65
6 | CCAGACUUCAAGCAGUCGGUC [Fam1B.1 aminoacylation ribozyme variant] | 1.4 | 1.48 | 1.1 | 1.3 | 1.77 | 1.39
7 | CUAAUUCAAACAGUCGGUCUG [Fam1A.1 aminoacylation ribozyme variant] | 0.62 | 0.839 | 0.731 | 0.853 | 0.915 | 0.523
8 | UUUCACCUAGGUCAUCGGGUA [Fam2.2 aminoacylation ribozyme variant] | 184 | 14.7 | 27.4 | 13.9 | 36.1 | 21.2
9 | AUUCACCUAGGCCUUCGGGUG [Fam2.2 aminoacylation ribozyme variant] | 19.9 | 2.49 | 3.67 | 3.43 | 5.19 | 3.83
10 | AAGUGUACUAAUAGUCGCAAG [Fam3.1 aminoacylation ribozyme variant] | 1.74 | 1.4 | 1.17 | 1.51 | 1.2 | 1.2
11 | AUUCACCUAAGUCAUCGGAUG [Fam2.2 aminoacylation ribozyme variant] | 0.343 | 0.917 | 0.736 | 0.983 | 0.815 | 0.557
12 | CCACACUUCAAACAAUCCGUC [Fam1B.1 aminoacylation ribozyme variant] | 1.35 | 0.83 | 0.559 | 0.993 | 0.682 | 1.2
13 | AUUAUCCUGGUCAACGAGUGA [Fam2.1 aminoacylation ribozyme variant] | 30.1 | 3.69 | 6.62 | 3.87 | 8.02 | 7.67
14 | AUUCACCUACGUCAUCGGGUC [Fam2.2 aminoacylation ribozyme variant] | 4.31 | 1.17 | 1.25 | 1.21 | 1.36 | 0.963
15 | AUUUCCCUGGUCAUGGAGUGA [Fam2.1 aminoacylation ribozyme variant] | 22 | 2.96 | 4.2 | 2.89 | 4.22 | 4.72
16 | UUUACCCUGGUCUUCGAGUGA [Fam2.1 aminoacylation ribozyme variant] | 13.9 | 2.46 | 3.61 | 2.79 | 3.58 | 5.27
17 | CUUCAGCUAGGUCAUCGGGUG [Fam2.2 aminoacylation ribozyme variant] | 16 | 2.65 | 3.42 | 3.6 | 3.57 | 3.83
18 | AAGUUAGCUAAUAGUCGGAAG [Fam3.1 aminoacylation ribozyme variant] | 3.13 | 1.07 | 1.12 | 1.32 | 1.28 | 1.94
19 | AUUCACCUAGCUCAACGGGUG [Fam2.2 aminoacylation ribozyme variant] | 6.75 | 1.37 | 1.88 | 1.36 | 2.28 | 1.95
20 | AAGUUAGCUAAUAGUCGCAUG [Fam3.1 aminoacylation ribozyme variant] | 3 | 1.83 | 1.07 | 1.34 | 1.97 | 1.64
21 | AGUCACCUAGGUCAUCGGGUA [Fam2.2 aminoacylation ribozyme variant] | 60 | 6.85 | 11.6 | 6.5 | 12.7 | 9.54

Row | Sequence | self-aminoacylation (biotinyl-Phe-oxazolone) | self-aminoacylation (biotinyl-Ile-oxazolone) | self-aminoacylation (biotinyl-Met-oxazolone) | self-aminoacylation (biotinyl-Val-oxazolone) | self-aminoacylation (biotinyl-Leu-oxazolone) | self-aminoacylation (biotinyl-Trp-oxazolone)
22 | CCACACUACAAACAAUCGGUC [Fam1B.1 aminoacylation ribozyme variant] | 1.41 | 0.904 | 0.642 | 0.883 | 0.652 | 0.993
23 | CUACUUCAAACAAUGGGUCUA [Fam1A.1 aminoacylation ribozyme variant] | 0.65 | 0.847 | 0.611 | 0.756 | 0.638 | 0.487
24 | AAGUUUGCUAGUAGCCGCAAG [Fam3.1 aminoacylation ribozyme variant] | 1.34 | 1.16 | 0.787 | 0.797 | 1.09 | 0.972
25 | CCAUACUUCAAGCAAUUGGUC [Fam1B.1 aminoacylation ribozyme variant] | 1.13 | 0.743 | 0.689 | 0.762 | 0.667 | 0.625
26 | CCACACAUCAAGCUAUCGGUC [Fam1B.1 aminoacylation ribozyme variant] | 0.819 | 0.954 | 0.888 | 1.15 | 0.914 | 0.735
27 | AUUACCCUGGUUAGCGAGUGA [Fam2.1 aminoacylation ribozyme variant] | 22.1 | 2.2 | 4.21 | 2.1 | 4.28 | 5.27
28 | CAACACUUCAAGCAAUCGGUA [Fam1B.1 aminoacylation ribozyme variant] | 1.44 | 1.25 | 1.15 | 1.14 | 1.13 | 1.23
29 | AAAAUUGCUAAUAGUCGCAAG [Fam3.1 aminoacylation ribozyme variant] | 2.58 | 1.93 | 1.33 | 1.73 | 1.78 | 3.04
30 | AUUCACCUUGCUCAUCGGGUG [Fam2.2 aminoacylation ribozyme variant] | 10.7 | 1.84 | 1.94 | 2 | 2.63 | 2.01
31 | AUUACCCUGGUUCUCGAGUGA [Fam2.1 aminoacylation ribozyme variant] | 8.08 | 1.78 | 2.08 | 2.2 | 3.1 | 3.34
32 | CUACUGCAUACAAUCGGUCUG [Fam1A.1 aminoacylation ribozyme variant] | 0.959 | 0.677 | 0.612 | 0.643 | 0.577 | 0.659
33 | AUUCCCCUAGUCAUCGAGUGA [Fam2.1 aminoacylation ribozyme variant] | 66.1 | 6.5 | 11.5 | 7.18 | 11.6 | 15.3
34 | CCACACUUCACGCGAUCGGUC [Fam1B.1 aminoacylation ribozyme variant] | 6.79 | 1.46 | 1.48 | 2.17 | 1.84 | 2.37
35 | AAGUUUGCGAAUAGUCGCAAA [Fam3.1 aminoacylation ribozyme variant] | 1.97 | 2.03 | 2.22 | 1.57 | 1.38 | 1.31
36 | GUUCACCUAGGUUAUCGGGUG [Fam2.2 aminoacylation ribozyme variant] | 34 | 3.41 | 4.84 | 3.44 | 4.08 | 5.35
37 | AUUCACCUAGGUAAACGGGUG [Fam2.2 aminoacylation ribozyme variant] | 22.9 | 1.97 | 3.77 | 2.27 | 4.47 | 3.84
38 | AUUCCCCUGGUCAUCGAGUAA [Fam2.1 aminoacylation ribozyme variant] | 1.42 | 1.55 | 1.69 | 1.7 | 1.35 | 1.47
39 | AGUACCCUAGUCAUCGAGUGA [Fam2.1 aminoacylation ribozyme variant] | 24.6 | 3.2 | 4.86 | 3.13 | 4.92 | 6.29
40 | CCACACUUCAAGCACUCGGCC [Fam1B.1 aminoacylation ribozyme variant] | 15.9 | 3.06 | 2.89 | 4.04 | 3.19 | 5.51
41 | AUCCACAUAGGUCAUCGGGUG [Fam2.2 aminoacylation ribozyme variant] | 78.8 | 5.82 | 10.1 | 6.77 | 12.1 | 8.91
42 | AUUACCCUGGUCAUCGAAUGU [Fam2.1 aminoacylation ribozyme variant] | 0.64 | 0.894 | 0.925 | 0.788 | 1.06 | 0.653
